Measurements: US20180326084A1

Key:
[1] = biological target: human AXL (full length) (human) (UniProt P30530); assay: flow cytometry, A431 cells pre-incubated with 10 µg/mL Gas6 (competitor)
[2] = biological target: human AXL (full length) (human) (UniProt P30530); assay: flow cytometry, A431 cells, no Gas6
[3] = biological target: human AXL (full length) (human) (UniProt P30530); assay: flow cytometry, A431 cells pre-incubated with 10 µg/mL Gas6 (competitor); value less accurate due to low binding

fold change of EC50 after Gas6 pre-incubation against no Gas6 [1]: 21 fold | maximal binding in presence of Gas6 (% of binding in absence of Gas6) [1]: 41% | maximal binding in presence of Gas6 (% of binding without Gas6) [1]: 19% | EC50 [2]: 0.09 µg/mL | EC50 [3]: 1.9 µg/mL
B1: IgG1-YW327.6S2 (antibody, from another filing, V domains shown)
VH: EVQLVESGGGLVQPGGSLRLSCAASGFSLSGSWIHWVRQAPGKGLEWVGWINPYRGYAYYADSVKGRFTISADTSKNTAYLQMNSLRAEDTAVYYCAREYSGWGGSSVGYAMDYWGQGTLVTVSS
VL: DIQMTQSPSSLSASVGDRVTITCRASQDVSTAVAWYQQKPGKAPKLLIYSASFLYSGVPSRFSGSGSGTDFTLTISSLQPEDFATYYCQQSYTTPPTFGQGTKVEIK
